The series is described as follows: yeast display, Sf9 membrane polyspecificity reagent, FACS + sequencing; frameworks hold sequencing errors. In outline:
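Galactose induction of a Saccharomyces cerevisiae BJ5465 synthetic nanobody display library ran 36–48 hours. The cells were then stained for 1 hour at 4 °C with 10% biotinylated, detergent-solubilized Sf9 membrane reagent, pulled down on streptavidin microbeads and FACS-sorted into low and high (top ~1%) gates on expression and reagent-binding fluorescence. Labels for polyreactivity follow the gate of origin.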
In the case of “QVQLVESGGGLVQAGGSHRLSCAASGSTFDYYAMGWYRQAPGKERELVAAITFSGDRTYYADSVKGRFTISRDNAKNTVYLQMNSLKPEDTAVYYCAARWFVYRYIFDYWGQGTQVTVSS”, the “polyreactivity (PSR sort gate)” value is “high polyreactivity”.
For “QVQLVESGGGLVQAGGSLRLSCAASGRIFRWYAMGWYRQAPGKERELVATISSSGRTNYADSVKGRFTISRDNAKNTVYLQMNSLKPEDTAVYYCAAEYYLRYRYDYWGQGTQVTVSS”, the “polyreactivity (PSR sort gate)” value was “high polyreactivity”.
As for “QVQLVESGGGLVQAGGSLRLSCAASGSIFVFNAMGWYRQAPGKERELVADITRRGGSTYYADSVKGRFTISRDNAKNTVYLQMNSLKPEDTAVYYCAAANPRDHRGANDYWGQGTQVTVSS”, the entry is “high polyreactivity”; as for “QVQLVESGGGLVQAGGSLRLSCAASGFTFYFNAMGWYRQAPGKERELVAGITSGGSTNYADSVKGRFTISRDNAKNTVYLQMNSLKPEDTAVYYCATDLLNNVDYDYWGQGTQVTVSS”, “low polyreactivity”.
The result for “QVQLQESGGGLVQAGGSLRLSCAASSNNSTLDDMCWYRQAPGKEREFVASIGSGGITNYADSVKGRFTISRDNAKNTVYLQMNSLKPEDTAVYYCAVLNQAYTDLIYWGQGTQVTVSS” reads “high polyreactivity”.
The result for “QVQLVESGGGLVQAGGSLRLICAASGSTFSAYVMGWYRQAPGKERKLVAAITRSGVSTYYADSVKGRFTISRDNAKNTVYLQMNSLKPEDTAVYYCARRAKGAYWNEYNYWGQGTQVTVSS” reads “high polyreactivity”; that for “QVQLVETGGGLVQAGGSLRLSCAASGITITVYAMGWYRQAPGKERELVAAINSGSSTNYADSVKGRFTISRDNAKNTVYLQMNSLKTEVTAVYYCDASYRTLPDKKRYCYWGQGTQVTVSS”, “high polyreactivity”; that for “QVQLEESGGGLVQAGGTLRLSCAASGSIFYGYAMGWYRKATGKQRDLVAVITDGGGSTYYADSVKGRFTISRDNAKNTVYLQMNSLKPEDTAVYYCAADSWGRYYYSSYSYDYWGQGTQVTVSS”, “low polyreactivity”.
For “QVQLVESGGGLVQAGGSLRLSCAASGIIFHLYAMGWYRPAPGKERELVAAISWNGSSTYYADSVKGRFTISRDNAKNTVYLQMNSLKPEDTAVYYCAASYGYFEDYGYWGQGTQVTVSS”, the “polyreactivity (PSR sort gate)” value is recorded as “low polyreactivity”.
In the case of “QVQLVESGGGLVQAGGSLRLSCAASGFIFSWYAMGWYRQAPGKERELVAAISHDGGSTYYADSVKGRFTISRDNAKNTVYLQMNSLKAEDTAVYYCAAPLRALSQRMGYWGQGTQVTVSS”, the “polyreactivity (PSR sort gate)” value is reported as “high polyreactivity”.
Take “QVQLVESGGGLVQAGGSLRLSCAASGFIFYYYAMGWYRQAPGKERELVAGITATGGSTYYADSVKGRFTISRDNAKNTVYLQMNSLKPEDTAVYYCARGPSGTPNGNTPYGDNRYNSWGQGTQVTVSS”: the “polyreactivity (PSR sort gate)” value is listed as “low polyreactivity”.
In the case of “QVQLVESGGGLVQAGGSLRLSCAASGRIFVGYAMGWSRQAPGKERELVASITRSAGRTFYADSVKGRFTISRDNAKNTVYLQMNSLKPEDTAVYYCNARYWKGYNGYLRSTRRDDYWGQGTQVTVSS”, the “polyreactivity (PSR sort gate)” value was “high polyreactivity”.
The result for “QVQLVESGGGLFQAGGSLRLSCAASGSTFYTNAMGWYRQAPGKERELVAAISWSGGSTYYADSVKGRFTIARDNAKNPVYLQLNSLKPEDTAVYYCDVSGTHFRYDYWGQGTQVTVSS” reads “high polyreactivity”; that for “QYQLVESGRGLVQAGGSLRLSCAASGSTFRSYAMGWYRQAPGKERDLVAAITSSGGRTYYADSVKGRFTISRDNAKNTVYLQMNSLKPEDTAVYYCAARTYSWGDWGQGTQVTVSS”, “high polyreactivity”.
“QVQLVESGGGLVQAGGILRLSCAASGSTFTSYAMGWYRQAPGKERELVAAISKSGGSTYYADSVKGRFTISRDNAKNTVYLQMNSLKPEDTALYYCAARYNVRSYSTSRFYYWGQGTLVTVSS”: the “polyreactivity (PSR sort gate)” value is on record as “low polyreactivity”.
The result for “QVQLVESGGGLVQAGGSLRLSSAASGNIMDVYAMGWYRQAPGKERELVAAISGTDGSTYYADSVKGRFTISRDNAKNTVYLQMNSLKPEDTAVYYCAAEYVYFWWGENYWGQGTQVTVSS” reads “high polyreactivity”; that for “QVQLEESGGGLVQAGGSLRLSCAASGSIFDTYAMGWYRQAPGNERELVAAISSGGRTYYADSVKGRFTISRDNAKNTVYLQMNSLKPEDTAVYYCNARYHARYGGDYWGQGTQVTVSS”, “high polyreactivity”; that for “QVQLVESGGGLVQAGGSLRLSCAASGIIFAWYAMGWYRQAPGKERELVAAINWSGGSTYYADSVKGRFTISRDYAKNTVYLQMNSLKPEDTAVYYCARSSRGKLDYWGQGTQVTVSS”, “low polyreactivity”.
As for “QVQLVESGGGLVQAGGSLRLSCAASGSTLWVYAMGSYRQAPGKERELVAAITQSTGDTHYADSVKGRFTISRDNAKNTVYLQMNSLKPEDTAVYYCAADSYLSVYDPYGYWGQGTQVTVSS”, the entry is “low polyreactivity”; as for “QVQLVESGGGLVQAGGSLRLSCAASGRIFGRYAMGWYRQAPGKERELVASISTGGGGTYYADSVKGRFTISRDNAKNTVYLQMNSLKPEDTAVYYCAKAWRGFWTKYDYWGQGTQVTVSS”, “low polyreactivity”.
As for “QVQLQESGGGLVQAGGSLRLSCAASSNNSTLDVMGWYRQAPGKEREFVASIGSGGITNYADSVKGRFTISRDNAKNTVYLQMNSLKPEDTAVYYCAVLNQAYTDLIYWGQGTLVTVSS”, the “polyreactivity (PSR sort gate)” value is on record as “high polyreactivity”.
For “QVQLVESGGGLVQAGGSLRLSCAASGLTFYYYTMGWYRQAPGKERELVAAIDNGGGTNYADSVKGRFTISRDNAKNTVYLQMNSLKPEDTAVYYCAADRSYYIIIGYDLFAYYYWGQGTQVTVSS”, the “polyreactivity (PSR sort gate)” value is on record as “low polyreactivity”.
Turning to “HVQIVESGGGLVQAGGSLRLSCADSGSTFLGYDMGWFRQAPGKVRELVATISKSGGSTHYADSVKGRFTISRDNAKNTVSLQMNSLKPEETAVYYCAADYYPRYYKNTGEYDYWGQGTQVTVSS”, the “polyreactivity (PSR sort gate)” value is on record as “low polyreactivity”.
The result for “EEELVESGGGLVQPGGSLRLSCAASGSIFTHYSMGWYRQAPGKERELVAAISWSGGSTYYADSVKGRFTISRDNAKYTVSLQMNSLKAEDTAVYYCAAETYWGDDYWGQGTQVTVSS” reads “high polyreactivity”; that for “QVQLQESSGGLVQAGGSLRMSCAASGTIFHFHIIGWYRQAPRKEREFVAASSYGTRTYYADSVKGRFTISRDNAKNTVYLQMNSQKPEDTAVYYCAVYDYLEVYCWYWGQGTQVTVRS”, “low polyreactivity”; that for “QVQLVESGGGLVQAGGSLRLSCAASGSTFVSNAMGWYRQAPGKERELVAGITFSGGSTYYADSVKGRFTISRDNAKNTVYLQMNSLKPEDTAVYYCAAEFHWWYAGYDYGYWGQGTQVTASS”, “low polyreactivity”.
The result for “QVQLVESGGGLVQAGGSLRLSCAASGSIFVGYDMGWYRQAPGKERELVAAITGTVSTYYADSVKGRFTISRDNAKNTVYLQMNSLKPEDTAVYYCAAEFVYAYGDGGVYWSWMEYWGQGTQVTVSS” reads “low polyreactivity”; that for “QVQLVESGGGLVHAGGSLRLSCAASGSTFDVYVMGWYRQAPGKEREMVAAISSGDDTNYADSVKGRFTISRDNAKNTVYLQMNSLKPEDTEVYYCNADYFDYSRPRYDYWGQGTQVTVSS”, “low polyreactivity”.
The result for “QVQLVESGGGLVQAGGSLRLSCAASGSIFFLYAMGWYRQAPGKERELVAAISRDGRTNYADSVKGRFTISRDNAKYTVYLQMKSLKPEDTAVYYGAKDGNHPGAVGYGYWGQGTQVTVSS” reads “low polyreactivity”; that for “QVQLVESGGGLVQAGGSLRLSCAASGLIFYRNAMGWYRQAPGKERELVAAIRFSTGSTYYADSVKGRFTISRDNAKKTVYLQMNSLKPEDTAVYYCAADRRYYWYNYWGQGTQVTVSS”, “high polyreactivity”.

(Values after the nanobody polyreactivity screen of Harvey et al. (2022).)
